Assay results taken from US20020106775.

System: plasminogen

LMW-uPA-A279 (LMW-uPA with Cys279 to Ala279 replacement)
zymography: the product shown to be active in zymography (data not shown)
